The target of test [1] is isolated Rpn11/Rpn8 heterodimer with Rpn11 A89F (S. cerevisiae) (UniProt P43588).
Test [2] concerns the target isolated Rpn11/Rpn8 heterodimer with Rpn11 A89I (S. cerevisiae) (UniProt P43588).
The target in test [3] is Rpn11 L132R, deubiquitinase subunit of the lid in the reconstituted receptor-deficient 26S proteasome (S. cerevisiae) (UniProt P43588).
In test [4] the target is Rpn11, wild type, deubiquitinase subunit of the lid in the reconstituted 26S proteasome (S. cerevisiae) (UniProt P43588).
Test [5] has the same target. This is another data set of the same source.
The target of test [6] is Rpn11 A89F, deubiquitinase subunit of the lid in the reconstituted receptor-deficient 26S proteasome (S. cerevisiae) (UniProt P43588).
The target in test [7] is Rpn11, wild type, deubiquitinase subunit of the lid in the reconstituted 26S proteasome (S. cerevisiae) (UniProt P43588). This is another data set of the same source.
For test [8], the target named is Rpt5, ATPase subunit of the base, in the reconstituted 26S proteasome (S. cerevisiae) (UniProt P33297).

Consider 5 molecules from paper PMC12256112.

On to Ubiquitin-TAMRA, for which the results for the deubiquitinase activity of the isolated Rpn11/Rpn8 heterodimer (0.5 μM) on 100 μM Ubiquitin-TAMRA, against wild-type Rpn11 (fluorescence polarisation, 30°C) in test [1] and in test [2] were 1.3 fold and 10 fold, respectively. As for “mono-ubiquitinated GS substrate (titin I27^V15P with glycine-serine-rich initiation region, one ubiquitin K63R attached) (from UniProt P0CG63 1-76)”, the degradation rate of the mono-ubiquitinated GS substrate by the SspB-fused ARR-Pru-ΔUIM proteasome with Rpn11^L132R; no ubiquitin-mediated stimulation (bulk degradation assay) in test [3] amounted to 0.25 min⁻¹. Also, the degradation rate of the mono-ubiquitinated GS substrate by the SspB-fused ARR-Pru-ΔUIM proteasome with wild-type Rpn11, against the non-ubiquitinated GS substrate (bulk degradation assay) in test [4] came to 0.38 min⁻¹. With “poly-ubiquitinated GS substrate (titin I27^V15P with glycine-serine-rich initiation region, long ubiquitin chains attached) (from UniProt P0CG63 1-76)”, the degradation rate of the GS substrate with long ubiquitin chains by SspB-fused ARR-Pru-ΔUIM proteasomes; 0.25 min^-1 for the non-ubiquitinated GS substrate (bulk degradation assay) in test [5] amounted to 1 min⁻¹. As to “unanchored K48-linked tetraubiquitin chain (from UniProt P0CG63 1-76)”, the SspB-delivered substrate degradation by ARR-Pru-ΔUIM-A89F proteasomes without and with K48-Ub4 (bulk degradation assay) in test [6] was determined as 1.2 fold. Further, in test [7], the average tail-insertion time constant of the wild-type proteasome without and with unanchored K48-Ub4 (single-molecule FRET substrate-processing assay) was 1.39 s.

B1: Rpn10 with the R23E, D31K and E68K mutations in its VWA domain, as subunit of the reconstituted 26S proteasome (receptor)
chain: MVLEATVLVIDNSEYSRNGDFPETRFEAQIKSVEFIFQAKRNSNPENTVGLISGAGANPRVLSTFTAKFGKILAGLHDTQIEGKLHMATALQIAQLTLKHRQNKVQHQRIVAFVCSPISDSRDELIRLAKTLKKNNVAVDIINFGEIEQNTELLDEFIAAVNNPQEETSHLLTVTPGPRLLYENIASSPIILEEGSSGMGAFGGSGGDSDANGTFMDFGVDPSMDPELAMALRLSMEEEQQRQERLRQQQQQQDQPEQSEQPEQHQDK
In test [8], B1 came in with a SspB-delivered substrate degradation by proteasomes with Rpn10^EKK against wild-type proteasomes (bulk degradation assay) of 1.6 fold and a s1-to-non-s1 transition rate of proteasomes with Rpn10^EKK against wild-type proteasomes (single-molecule FRET conformational dynamics assay) of 40%.
